Assay results as given in patent US7842469B2, “Bioluminescence resonance energy transfer (BRET) systems and methods of use thereof” (Stanford University, priority 2005, dated 2010).
Like-named read-outs stand apart in the source and are kept apart here.

How the values were obtained:
[1] = target: MDR1 P-glycoprotein (Pgp) (Homo sapiens, UniProt P08183); conditions: cited from earlier work
[2] = Luciferase activity of purified RLuc mutants (light output integrated over 10 s, luminometer); type: biochemical; conditions: for Activity (relative to RLuc) bc: benzyl-coelenterazine; for Activity (relative to RLuc) bc / Activity (relative to RLuc) bdc / Activity (relative to RLuc) cp / Activity (relative to RLuc) n / Activity (relative to RLuc) native: relative to native enzyme; for Activity (relative to RLuc) bdc: bisdeoxycoelenterazine; for Activity (relative to RLuc) cp: coelenterazine-cp; for Activity (relative to RLuc) n: coelenterazine-n; for Activity (relative to RLuc) native: native coelenterazine
How it was run: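 Purified RLuc mutant sample, diluted in EB with 1% HSA, added to room-temperature 100 mM sodium phosphate (pH 7), then 1 μl of 0.5 μg/μl coelenterazine or analog mixed in manually. Light read for 10 s starting ~4 s after luciferin addition. Luminometer calibrated to photons/s against luminol standard in DMSO.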

[3] = Serum stability in mouse serum at 37° C.; type: in vitro ADME; conditions: mouse serum, 37° C., mono-exponential fit
How it was run: (§1)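 Luciferase diluted into mouse or rat serum at 37° C; aliquots withdrawn over time for activity, half-life from mono-exponential decay fit. Emission spectra recorded at ambient temperature with a grating spectrometer and cooled CCD detector.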

[4] = Serum stability in rat serum at 37° C.; type: in vitro ADME; conditions: mono-exponential fit
How it was run: as §1

[5] = Bioluminescence emission spectra; type: physicochemical; conditions: emission spectrum with native coelenterazine
How it was run: as §1

[6] = Quantum yield measurements; type: biochemical; conditions: for Quantum Yield (%) bc: benzyl-coelenterazine; for Quantum Yield (%) bdc: bisdeoxycoelenterazine; for Quantum Yield (%) cp: coelenterazine-cp; for Quantum Yield (%) n: coelenterazine-n; for Quantum Yield (%) native: native coelenterazine
Protocol: For quantum yield measurements, separate 1 μl drops of protein (about 2 pm) and substrate (0.2 pm) were placed in a tube, 100 μl of 100 mM sodium phosphate buffer (pH 7) was injected by the luminometer to mix, and the total light output was integrated (generally 5-10 min). For coelenterazine-n, the protein amount was increased 10 fold and the acquisition time lengthened to insure the reaction approached completion.

293T cells = assay: Mammalian expression, transient transfection, light output in 293T cells; type: cell-based, human
From the text: (§2) Mammalian Expression: In order to construct mammalian expression vectors, bacterial expression vectors containing the desired mutations were used as templates for PCR, with primers designed such that the N-terminal pelB sequence would be replaced by a methionine codon and a C-terminal stop codon would replace the Myc epitope and 6×His tag. The primers also contained appropriate NheI and HindIII restriction sites to allow insertion of the product into the pcDNA 3.1 plasmid (Invitrogen). The resultant plasmids were transiently transfected using SuperFect (Qiagen) into 293T or Chinese Hamster Ovarian (CHO, ATCC# CCL-61) cells growing in 24 well plates following the manufacturer's protocol. Twenty-four hours post transfection, 0.5 μg/well of coelenterazine was added, and the plates were imaged in an IVIS 50 imaging system (Xenogen, Alameda, Calif.).

CHO cells = assay: Mammalian expression, transient transfection, light output in CHO cells; type: cell-based, Chinese Hamster; conditions: pcDNA 3.1 CMV plasmid, 24 hours post transfection, coelenterazine
From the text: as §2

Sequence of MDR1 P-glycoprotein (Pgp) (P08183 whole entry): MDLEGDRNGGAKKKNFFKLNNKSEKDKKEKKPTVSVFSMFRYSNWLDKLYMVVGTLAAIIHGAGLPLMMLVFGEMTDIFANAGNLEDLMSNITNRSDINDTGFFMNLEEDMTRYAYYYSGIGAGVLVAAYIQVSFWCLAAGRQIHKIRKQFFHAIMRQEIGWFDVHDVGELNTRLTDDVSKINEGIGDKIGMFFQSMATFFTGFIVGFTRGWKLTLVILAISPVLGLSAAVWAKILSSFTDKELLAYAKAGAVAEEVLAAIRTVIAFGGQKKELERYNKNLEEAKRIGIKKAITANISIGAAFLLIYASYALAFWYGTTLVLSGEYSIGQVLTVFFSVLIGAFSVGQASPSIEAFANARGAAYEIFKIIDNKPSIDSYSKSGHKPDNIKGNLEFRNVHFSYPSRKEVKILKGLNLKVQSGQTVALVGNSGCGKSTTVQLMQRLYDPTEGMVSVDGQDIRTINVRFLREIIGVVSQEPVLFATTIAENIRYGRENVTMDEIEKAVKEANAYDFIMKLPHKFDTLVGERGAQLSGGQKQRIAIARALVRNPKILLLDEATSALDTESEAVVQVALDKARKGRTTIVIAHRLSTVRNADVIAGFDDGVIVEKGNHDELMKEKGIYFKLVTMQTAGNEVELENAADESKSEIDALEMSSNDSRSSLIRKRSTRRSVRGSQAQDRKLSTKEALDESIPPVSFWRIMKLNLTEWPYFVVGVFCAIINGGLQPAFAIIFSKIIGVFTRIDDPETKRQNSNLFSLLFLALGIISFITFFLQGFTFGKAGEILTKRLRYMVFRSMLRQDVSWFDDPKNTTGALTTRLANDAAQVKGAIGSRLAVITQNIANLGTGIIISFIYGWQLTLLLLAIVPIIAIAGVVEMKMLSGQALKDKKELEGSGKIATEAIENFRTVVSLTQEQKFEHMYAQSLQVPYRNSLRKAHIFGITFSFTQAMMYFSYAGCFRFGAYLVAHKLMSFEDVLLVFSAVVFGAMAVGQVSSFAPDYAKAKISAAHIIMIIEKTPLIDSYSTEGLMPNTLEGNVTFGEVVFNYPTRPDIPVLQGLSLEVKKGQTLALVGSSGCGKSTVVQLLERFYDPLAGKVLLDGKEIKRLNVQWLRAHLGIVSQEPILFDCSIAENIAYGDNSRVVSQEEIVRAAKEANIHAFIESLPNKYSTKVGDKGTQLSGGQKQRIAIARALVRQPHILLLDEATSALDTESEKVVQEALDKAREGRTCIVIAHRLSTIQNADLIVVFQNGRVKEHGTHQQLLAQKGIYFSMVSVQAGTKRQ

Oc1ccc(Cc2nc3c(CC4CCCC4)nc(-c4ccc(O)cc4)cn3c2O)cc1 [coelenterazine-cp]
substrate for MDR1 P-glycoprotein (Pgp) ([1]; mammalian cells): not substrates for Pgp

Coelenterazine-n
substrate for MDR1 P-glycoprotein (Pgp) [1]: not substrates for Pgp

Oc1ccc(Cc2nc3c(Cc4ccccc4)nc(-c4ccc(O)cc4)cn3c2O)cc1 [coelenterazine, Coelenterazine]
substrate for MDR1 P-glycoprotein (Pgp) ([1]; mammalian cells): is a substrate for MDR1 P-glycoprotein

B1: C124A/M185V: double mutant (C124A/M185V) Renilla Luciferase protein (SEQ ID NO: 2) (protein)
chain: MASKVYDPEQRKRMITGPQWWARCKQMNVLDSFINYYDSEKHAENAVIFLHGNAASSYLWRHVVPHIEPVARCIIPDLIGMGKSGKSGNGSYRLLDHYKYLTAWFELLNLPKKIIFVGHDWGAALAFHYSYEHQDKIKAIVHAESVVDVIESWDEWPDIEEDIALIKSEEGEKMVLENNFFVETVLPSKIMRKLEPEEFAAYLEPFKEKGEVRRPTLSWPREIPLVKGGKPDVVQIVRNYNAYLRASDDLPKMFIESDPGFFSNAIVEGAKKFPNTEFVKVKGLHFSQEDAPDEMGKYIKSFVERVLKNEQ
modifications: Chemically synthesized Renilla Luciferase
Activity (relative to RLuc) bc [2]: 3.0
light output compared to M185V alone ([2]; bisdeoxycoelenterazine (Coelenterazine 400a)): 2 fold
Activity (relative to RLuc) bdc [2]: 44
Activity (relative to RLuc) cp [2]: 15
Activity (relative to RLuc) n [2]: 7.8
increase in activity compared to the C124A mutant ([2]; in vitro): approximately 3 fold
Activity (relative to RLuc) native [2]: 3.4
Serum τ1/2 (h) mouse [3]: 5.7 h
Serum τ1/2 (h) rat [4]: 3.7 h
Wavelength (nm) mean [5]: 500 nm
Wavelength (nm) peak [5]: 485 nm
Quantum Yield (%) bc [6]: 6.3 ± 0.1%
Quantum Yield (%) bdc [6]: (174.4 ± 6.7) × 10^−3%
Quantum Yield (%) cp [6]: 10.1 ± 0.2%
Quantum Yield (%) n [6]: 9.4 ± 0.4%
Quantum Yield (%) native [6]: 6.9 ± 0.3%
increase in light relative to C124A after transient transfection into mammalian cells (293T cells; mammalian cells (293T or CHO)): approximately 3 fold
Light output after transient transfection, 293T (293T cells; pcDNA 3.1 CMV plasmid, 24 hours post transfection, coelenterazine): 174.1 ± 25.7 photons × 10^6/s/cm^2/steradian
Light output after transient transfection, CHO (CHO cells): 172.4 ± 8.4 photons × 10^6/s/cm^2/steradian

B2: C124A/M253L: RLuc mutant C124A/M253L (protein)
chain: MASKVYDPEQRKRMITGPQWWARCKQMNVLDSFINYYDSEKHAENAVIFLHGNAASSYLWRHVVPHIEPVARCIIPDLIGMGKSGKSGNGSYRLLDHYKYLTAWFELLNLPKKIIFVGHDWGAALAFHYSYEHQDKIKAIVHAESVVDVIESWDEWPDIEEDIALIKSEEGEKMVLENNFFVETMLPSKIMRKLEPEEFAAYLEPFKEKGEVRRPTLSWPREIPLVKGGKPDVVQIVRNYNAYLRASDDLPKLFIESDPGFFSNAIVEGAKKFPNTEFVKVKGLHFSQEDAPDEMGKYIKSFVERVLKNEQ
Activity (relative to RLuc) bc [2]: 1.4
Activity (relative to RLuc) bdc [2]: 1.7
Activity (relative to RLuc) cp [2]: 1.6
Activity (relative to RLuc) n [2]: 1.6
Activity (relative to RLuc) native [2]: 1.9
Serum τ1/2 (h) mouse [3]: 15 h
Serum τ1/2 (h) rat [4]: 10 h
Wavelength (nm) mean [5]: 488 nm
Wavelength (nm) peak [5]: 471 nm
Quantum Yield (%) bc [6]: 3.5 ± 0.1%
Quantum Yield (%) bdc [6]: (7.6 ± 0.3) × 10^−3%
Quantum Yield (%) cp [6]: 5.1 ± 0.2%
Quantum Yield (%) n [6]: 5.8 ± 0.1%
Quantum Yield (%) native [6]: 5.5 ± 0.1%

B3: C124A/A143M: RLuc mutant C124A/A143M (protein)
chain: MASKVYDPEQRKRMITGPQWWARCKQMNVLDSFINYYDSEKHAENAVIFLHGNAASSYLWRHVVPHIEPVARCIIPDLIGMGKSGKSGNGSYRLLDHYKYLTAWFELLNLPKKIIFVGHDWGAALAFHYSYEHQDKIKAIVHMESVVDVIESWDEWPDIEEDIALIKSEEGEKMVLENNFFVETMLPSKIMRKLEPEEFAAYLEPFKEKGEVRRPTLSWPREIPLVKGGKPDVVQIVRNYNAYLRASDDLPKMFIESDPGFFSNAIVEGAKKFPNTEFVKVKGLHFSQEDAPDEMGKYIKSFVERVLKNEQ
Activity (relative to RLuc) bc [2]: 1.3
Activity (relative to RLuc) bdc [2]: 1.6
Activity (relative to RLuc) cp [2]: 0.95
Activity (relative to RLuc) n [2]: 1.5
Activity (relative to RLuc) native [2]: 1.7
Serum τ1/2 (h) mouse [3]: 30 h
Serum τ1/2 (h) rat [4]: 29 h
Wavelength (nm) mean [5]: 497 nm
Wavelength (nm) peak [5]: 480 nm
Quantum Yield (%) bc [6]: 3.5 ± 0.1%
Quantum Yield (%) bdc [6]: (6.3 ± 0.7) × 10^−3%
Quantum Yield (%) cp [6]: 4.8 ± 0.1%
Quantum Yield (%) n [6]: 5.8 ± 0.2%
Quantum Yield (%) native [6]: 5.2 ± 0.3%

B4: C124A/S287L: RLuc mutant C124A/S287L (protein)
chain: MASKVYDPEQRKRMITGPQWWARCKQMNVLDSFINYYDSEKHAENAVIFLHGNAASSYLWRHVVPHIEPVARCIIPDLIGMGKSGKSGNGSYRLLDHYKYLTAWFELLNLPKKIIFVGHDWGAALAFHYSYEHQDKIKAIVHAESVVDVIESWDEWPDIEEDIALIKSEEGEKMVLENNFFVETMLPSKIMRKLEPEEFAAYLEPFKEKGEVRRPTLSWPREIPLVKGGKPDVVQIVRNYNAYLRASDDLPKMFIESDPGFFSNAIVEGAKKFPNTEFVKVKGLHFLQEDAPDEMGKYIKSFVERVLKNEQ
Activity (relative to RLuc) bc [2]: 2.8
Activity (relative to RLuc) bdc [2]: 9.5
Activity (relative to RLuc) cp [2]: 3.4
Activity (relative to RLuc) n [2]: 5.0
Activity (relative to RLuc) native [2]: 3.9
Serum τ1/2 (h) mouse [3]: 28 h
Serum τ1/2 (h) rat [4]: 20 h
Wavelength (nm) mean [5]: 496 nm
Wavelength (nm) peak [5]: 478 nm
Quantum Yield (%) bc [6]: 5.0 ± 0.1%
Quantum Yield (%) bdc [6]: (20.9 ± 0.6) × 10^−3%
Quantum Yield (%) cp [6]: 7.2 ± 0.3%
Quantum Yield (%) n [6]: 7.7 ± 0.2%
Quantum Yield (%) native [6]: 6.1 ± 0.2%
